Test results from patent US20240034778A1 (REGENTS OF THE UNIVERSITY OF MICHIGAN, published 2024).
Substitutions are numbered along the chain they refer to. One block for each binder: values may come before it.

How the values were obtained:
[1] = biological target: T1, Aβ fibrils (fibrils of Aβ1-42) (UniProt P05067 672-713); test: immunodot blot, antibody at 10 nM, 30 second exposure
T1 construct: domain: Aβ1-42; Fibrillar (aggregated) state of synthetic Aβ1-42; For flow cytometry the fibrils were doped with 1% biotinylated Aβ1-42 and held on streptavidin Dynabeads; for dot blots unlabeled fibrils were spotted on nitrocellulose; also called Aβ42 fibrils; fibrillar Aβ
Method: (§1) FIG. 6A includes images of an immunoblot analysis of the conformational and sequence specificity of the selected Aβ antibodies. Disaggregated Aβ and fibrillar Aβ, IAPP, and αSyn were immobilized on nitrocellulose membranes and probed with anti-Aβ antibodies (10 nM in PBS with 1% milk). The blots were imaged after relatively short exposure times (30 seconds) except for AF1 (45 minute exposure). A loading control blot was detected using colloidal silver stain. The experiments were repeated three times and a representative example is shown. FIG. 6B includes images of immunoblot analysis of the conformational and sequence specificity of the selected Aβ antibodies using a long exposure time. The blots were processed and imaged as described in FIG. 6A except that all of the blots were processed after a relatively long exposure time (45 minutes). A loading control blot was detected using colloidal silver stain. The experiments were repeated three times and a representative example is shown.
(§2) The conformational specificity of the selected antibodies was then assessed using immunodot blots (FIG. 6A).

[2] = biological target: T2, disaggregated Aβ (Aβ1-42) (UniProt P05067 672-713); test: immunodot blot, antibody at 10 nM, 45 minute exposure
T2 construct: domain: Aβ1-42; Same peptide as the fibrils, in the disaggregated (soluble) state; also called soluble Aβ; Aβ monomer
Method: as §1, §2

[3] = biological target: T1, Aβ fibrils (fibrils of Aβ1-42); test: flow cytometry, antibody on Aβ fibril-coated streptavidin beads (fibril batch of FIG. 10)
Method: (§3) For affinity analysis, the binding of antibodies to Aβ fibrils was evaluated using streptavidin dynabeads and flow cytometry. Beads were immobilized with 1% biotinylated fibrils as described above. The fibril-coated beads were washed twice with PBSB and then blocked with 10% milk in PBS at room temperature for 1 hour with end-over-end mixing. Afterward, the beads were washed 2× with PBSB.
(§4) Antibodies were thawed and centrifuged at 21000× g for 5 minutes to remove aggregates. The supernatant was transferred to a new tube and the antibody concentration was determined by measuring absorbance at 280 nm. Antibody dilutions were made in PBSB. Fibril-coated beads (1.25×10⁵ beads per evaluated antibody concentration) were incubated with antibodies in 96 well plates (Greiner, 650261) in 1% milk for 3 hours at 25° C.(300 RPM). Next, the plates were centrifuged at 3500 RPM for 5 minutes, the supernatants were discarded, and the beads were washed once with ice-cold PBSB. After washing, the plates were spun down again and the beads with resuspended with 300× diluted goat anti-human Fc AF647 (Jackson Immunoresearch, 109-605-098) on ice for 4-5 minutes. […] Two independent repeats were performed with different batches of beads coated with Aβ fibrils.

[4] = biological target: T1, Aβ fibrils (fibrils of Aβ1-42); test: flow cytometry, antibody on Aβ fibril-coated streptavidin beads (fibril batch of FIG. 5)
Method: as §3, §4

[5] = biological target: T1, Aβ fibrils (fibrils of Aβ1-42); test: flow cytometry, antibody on Aβ fibril-coated streptavidin beads
Method: as §3, §4

B1: Clone 101 (Fc fusion)
VH: EVQLVESGGGLVQPGGSLRLSCAASGFNIKDTYIHWVRQAPGKGLEWVARIYPASGSTRYAGSVKGRFTISADTSKNTAYLQMNSLRAEDTAVYYCARDGYDGSYFVGYDYNDFYDYWGQGTLVTVSS
VL: DIQMTQSPSSLSASVGDRVTITCRASQNVYSAVTWYQQKPGKAPKLLIYSASFLYSGVPSRFSGSRSGTDFTLTISSLQPEDFATYYCQQHSTYPPTFGQGTKVEIK
- binding result [1]: binds
- binding result [2]: binds

B4: crenezumab (antibody, V domains shown)
VH: EVQLVESGGGLVQPGGSLRLSCAASGFTFSSYGMSWVRQAPGKGLELVASINSNGGSTYYPDSVKGRFTISRDNAKNSLYLQMNSLRAEDTAVYYCASGDYWGQGTTVTVSS
VL: DIVMTQSPLSLPVTPGEPASISCRSSQSLVYSNGDTYLHWYLQKPGQSPQLLIYKVSNRFSGVPDRFSGSGSGTDFTLKISRVEAEDVGVYYCSQSTHVPWTFGQGTKVEIKR
- EC50 [5]: 9 nM

The remaining lines, values ahead:

- EC50 [3]: 18 nM
- EC50 [4]: 8 nM
B2: Clone 97 (Fc fusion)
VH: B1 VH with S57A, G62D
VL: B1 VL with Y30A, S31Y
notes: also called parental antibody (clone 97); 97 WT

- binding result [1]: binds
- binding result [2]: binds
B3: Clone 93 (Fc fusion)
VH: B1 VH with A54S, S55N, S57Y
VL: B1 VL with S31N, S92N
